The record followed here is PMC10540404.

Experiment [1] deals with MHC-I (endogenous, mouse primary cortical neurons) (mouse (endogenous in primary cortical neurons)) (UniProt P01901). Briefly: co-IP; cultured mouse primary cortical neurons, with or without oligomeric Aβ; anti-mouse MHC-I antibody (2G5); endogenous MHC-I and NCAM1.
Experiment [2] concerns the target single-chain trimer (SCT) of HLA-A2.1 (TAX-HLA-A2.1-hβM). Briefly: co-IP.

UniProt P01901, sequence (P01901 22-369): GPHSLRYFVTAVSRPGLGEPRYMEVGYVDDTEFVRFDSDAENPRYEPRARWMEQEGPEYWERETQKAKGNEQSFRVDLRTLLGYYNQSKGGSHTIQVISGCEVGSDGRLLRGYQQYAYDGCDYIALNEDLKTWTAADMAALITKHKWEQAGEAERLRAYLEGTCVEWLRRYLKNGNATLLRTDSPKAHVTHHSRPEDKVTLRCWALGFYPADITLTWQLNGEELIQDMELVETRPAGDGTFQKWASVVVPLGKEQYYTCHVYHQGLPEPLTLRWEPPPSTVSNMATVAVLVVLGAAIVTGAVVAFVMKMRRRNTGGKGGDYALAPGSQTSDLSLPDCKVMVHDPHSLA

On to “NCAM1 (endogenous, mouse primary cortical neurons) (from UniProt P13595 20-1115) (natural protein)”, for which the reduction of co-precipitated NCAM1 with Aβ treatment against control in experiment [1] was found to be 50%.
In the case of “NCAM1-hemagglutinin (HA) (from UniProt P13591 20-858) (natural protein)”, the fold increase of the complex with Aβ treatment in experiment [2] was found to be 1.5 fold.
